Paper PMC5039005

Assays:
[1] = target: Str-Ct.Samp1(1–180) (Chaetomium thermophilum); experiment: pull-down
Samp1-YFP (human) = Samp1-YFP (human) (UniProt Q5SNT2); experiment: cross-linking + co-IP

Substance	fold binding, RanGTP against RanGDP [1] [fold]	percent of RanGTP pulled down at a 1:1 molar ratio [1] [%]	percent of total RanGTP bound in live cells (Samp1-YFP (human)) [%]
His6-Ran (from UniProt P62826 1-216) (natural protein)	1.8	40	–
Ran (endogenous in tsBN2 and BHK-21 cells) (from UniProt A0A8C2MF66 1-216) (natural protein)	–	–	1
